Assay results published in patent publication US10925971B2, “Methods of treating PRLR positive breast cancer” (Regeneron Pharmaceuticals, Inc., priority 2016, dated 2021).

T1: human PRLR on HEK293/hPRLR cells (Homo sapiens, UniProt P16471)
T1 construct: HA; expressed in transfected cells; host or cells: HEK293
T1 sequence (P16471 25-622): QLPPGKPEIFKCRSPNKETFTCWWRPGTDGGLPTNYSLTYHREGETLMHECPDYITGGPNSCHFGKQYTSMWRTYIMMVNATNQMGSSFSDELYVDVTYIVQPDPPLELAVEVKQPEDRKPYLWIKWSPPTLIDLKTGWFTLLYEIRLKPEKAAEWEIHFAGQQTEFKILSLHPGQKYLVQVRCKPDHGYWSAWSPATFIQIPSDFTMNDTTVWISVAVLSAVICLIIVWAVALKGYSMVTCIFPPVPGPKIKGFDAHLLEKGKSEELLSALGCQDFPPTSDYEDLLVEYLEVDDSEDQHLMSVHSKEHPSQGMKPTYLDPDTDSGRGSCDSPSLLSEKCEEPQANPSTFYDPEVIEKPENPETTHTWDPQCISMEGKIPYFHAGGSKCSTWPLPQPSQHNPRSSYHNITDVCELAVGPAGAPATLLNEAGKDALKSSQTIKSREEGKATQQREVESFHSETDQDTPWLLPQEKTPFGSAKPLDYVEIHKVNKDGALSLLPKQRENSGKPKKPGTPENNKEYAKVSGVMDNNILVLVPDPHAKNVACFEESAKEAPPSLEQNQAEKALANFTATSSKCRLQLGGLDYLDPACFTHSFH

T2: monkey PRLR on HEK293/mfPRLR cells (Macaca fascicularis, UniProt A0A2K5WXK1)
T2 construct: HA; expressed in transfected cells; host or cells: HEK293
T2 sequence (A0A2K5WXK1 25-619): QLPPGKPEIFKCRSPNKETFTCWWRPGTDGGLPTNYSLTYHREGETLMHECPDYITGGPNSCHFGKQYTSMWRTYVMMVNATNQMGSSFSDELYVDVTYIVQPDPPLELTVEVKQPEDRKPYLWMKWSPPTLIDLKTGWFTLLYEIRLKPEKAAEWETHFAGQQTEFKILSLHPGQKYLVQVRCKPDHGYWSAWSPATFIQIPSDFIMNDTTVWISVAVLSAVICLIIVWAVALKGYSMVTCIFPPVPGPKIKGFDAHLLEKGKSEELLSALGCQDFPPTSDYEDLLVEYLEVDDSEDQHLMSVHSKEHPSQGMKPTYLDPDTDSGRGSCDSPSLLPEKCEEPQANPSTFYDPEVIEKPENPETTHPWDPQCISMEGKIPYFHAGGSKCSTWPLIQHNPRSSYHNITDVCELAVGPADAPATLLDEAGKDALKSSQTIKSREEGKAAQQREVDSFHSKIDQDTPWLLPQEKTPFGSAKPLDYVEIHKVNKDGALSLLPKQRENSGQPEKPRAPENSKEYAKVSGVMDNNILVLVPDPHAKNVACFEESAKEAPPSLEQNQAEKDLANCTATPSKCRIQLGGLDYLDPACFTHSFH

T3: mouse PRLR on HEK293/mPRLR cells (Mus musculus, UniProt Q08501)
T3 construct: HA; expressed in transfected cells; host or cells: HEK293
T3 sequence (Q08501 20-608): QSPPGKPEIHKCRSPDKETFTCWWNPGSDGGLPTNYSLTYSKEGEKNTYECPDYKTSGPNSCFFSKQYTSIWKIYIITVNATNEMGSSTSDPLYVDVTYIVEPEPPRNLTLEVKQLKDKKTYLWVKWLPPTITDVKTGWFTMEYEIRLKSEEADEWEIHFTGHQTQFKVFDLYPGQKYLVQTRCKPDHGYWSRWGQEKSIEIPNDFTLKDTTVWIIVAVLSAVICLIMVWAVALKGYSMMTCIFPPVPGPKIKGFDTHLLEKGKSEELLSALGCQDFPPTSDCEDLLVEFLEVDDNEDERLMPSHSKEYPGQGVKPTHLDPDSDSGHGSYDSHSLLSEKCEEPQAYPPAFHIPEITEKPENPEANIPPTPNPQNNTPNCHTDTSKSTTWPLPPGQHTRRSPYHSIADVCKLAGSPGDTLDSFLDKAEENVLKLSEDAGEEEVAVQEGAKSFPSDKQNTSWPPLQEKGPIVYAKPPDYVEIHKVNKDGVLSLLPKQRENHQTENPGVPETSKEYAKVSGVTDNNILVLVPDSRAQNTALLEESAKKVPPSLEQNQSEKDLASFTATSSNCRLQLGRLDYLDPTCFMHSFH

T4: native PRLR expressing T47D cells (Homo sapiens, UniProt P16471)
T4 construct: a native PRLR expressing cell line (T47D); endogenous in cells; host or cells: T47D
T4 sequence (P16471 25-622): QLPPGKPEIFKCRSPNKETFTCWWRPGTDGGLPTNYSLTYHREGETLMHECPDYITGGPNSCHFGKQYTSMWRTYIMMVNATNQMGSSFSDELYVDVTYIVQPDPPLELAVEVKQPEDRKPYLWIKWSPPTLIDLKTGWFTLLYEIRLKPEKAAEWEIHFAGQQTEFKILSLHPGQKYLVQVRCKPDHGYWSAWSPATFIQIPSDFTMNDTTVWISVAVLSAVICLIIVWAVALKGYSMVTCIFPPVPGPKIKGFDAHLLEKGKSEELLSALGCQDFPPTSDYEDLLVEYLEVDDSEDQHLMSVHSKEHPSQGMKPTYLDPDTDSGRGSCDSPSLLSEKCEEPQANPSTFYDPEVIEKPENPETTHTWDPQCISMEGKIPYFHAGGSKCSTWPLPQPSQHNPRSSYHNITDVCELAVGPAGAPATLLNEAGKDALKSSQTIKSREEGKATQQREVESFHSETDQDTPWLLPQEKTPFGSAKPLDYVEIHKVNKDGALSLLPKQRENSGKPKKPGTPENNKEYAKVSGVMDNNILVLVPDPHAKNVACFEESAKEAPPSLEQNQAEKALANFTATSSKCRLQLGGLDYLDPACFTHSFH

B1: H1H6793P: fully human anti-PRLR antibody, human IgG1 Fc; HCVR/LCVR SEQ ID NOs 146/154 (antibody, V domains shown)
VH: EVQLVESGGGLVQPGGSLRLSCAASGFSFSIYAMSWFRQAPGKGLEWVSAINGRGDGTHYADSVKGRFTISRDNSKTTLYLQMSSLRAEDTAVYYCAKPVMSTNGFDIWGQGTMVTVSS
VL: DIQMTQSPSTLSASVGDRVTITCRASQSISSWLAWYQLKPGKAPKLLIYKASNLESGVPSRFSGSGSGTEFTLTISSLQPDDFATYYCQQYNIYWTFGQGTKVEIK
B2: H1H6792P: fully human anti-PRLR antibody, human IgG1 Fc; HCVR/LCVR SEQ ID NOs 130/138 (antibody, V domains shown)
VH: EVQLVESGGGLVQPGRSLRLSCAASGFTLDDHAVHWVRQAPGKGLEWVSGISWNSVYIDYADSVKGRFTIFRDNAKNSLYLQMNSLRAEDTAFYYCARDIEGARDYWGQGTLVTVSS
VL: DIQMTQSPSSLSASVGDRVTITCRASQGIRNDLGWYQQKPGKAPKRLIYAASSLQSGVPSRFSGSGYGTEFTLTISSLQPEDFAPYYCLQHNSYPLTFGGGTKVEIK

How the values were obtained:
[1] = system: Macaca fascicularis PRLR (mfPRLR.mmh; SEQ ID NO:403); test: Surface plasmon resonance (Biacore T200), antibody-capture format; format: binding; conditions: analyte mfPRLR.mmh
Macaca fascicularis PRLR (mfPRLR.mmh; SEQ ID NO:403), sequence (as listed by the source): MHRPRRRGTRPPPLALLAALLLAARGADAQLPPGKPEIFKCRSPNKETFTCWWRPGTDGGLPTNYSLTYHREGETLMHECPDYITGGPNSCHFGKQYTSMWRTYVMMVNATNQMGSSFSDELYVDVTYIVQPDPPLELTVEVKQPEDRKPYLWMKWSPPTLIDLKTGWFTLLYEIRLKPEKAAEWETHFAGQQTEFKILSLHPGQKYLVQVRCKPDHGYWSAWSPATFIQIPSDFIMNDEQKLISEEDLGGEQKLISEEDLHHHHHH
Procedure: (§1) Antibodies, expressed as human IgG1 Fc (i.e., “H1H” designations), were captured onto an anti-human Fc sensor surface (mAb-capture format), and soluble monomeric (hPRLR.mmh; SEQ ID NO:401, or Macaca fascicularis (mf) PRLR.mmh; SEQ ID NO:403) or dimeric (hPRLR.mFc; SEQ ID NO:402) PRLR protein was injected over the sensor surface. Measurements were conducted on a T200 Biacore instrument. Kinetic association (ka) and dissociation (kd) rate constants were determined by processing and fitting the data to a 1:1 binding model using Scrubber 2.0 curve fitting software.

[2] = target: T5, dimeric human PRLR (hPRLR.mFc; SEQ ID NO:402) (Homo sapiens, UniProt P16471); test: as above; format: binding; conditions: analyte hPRLR.mFc
T5 construct: dimeric (hPRLR.mFc)
T5 sequence (P16471 with tags, fused parts or gaps): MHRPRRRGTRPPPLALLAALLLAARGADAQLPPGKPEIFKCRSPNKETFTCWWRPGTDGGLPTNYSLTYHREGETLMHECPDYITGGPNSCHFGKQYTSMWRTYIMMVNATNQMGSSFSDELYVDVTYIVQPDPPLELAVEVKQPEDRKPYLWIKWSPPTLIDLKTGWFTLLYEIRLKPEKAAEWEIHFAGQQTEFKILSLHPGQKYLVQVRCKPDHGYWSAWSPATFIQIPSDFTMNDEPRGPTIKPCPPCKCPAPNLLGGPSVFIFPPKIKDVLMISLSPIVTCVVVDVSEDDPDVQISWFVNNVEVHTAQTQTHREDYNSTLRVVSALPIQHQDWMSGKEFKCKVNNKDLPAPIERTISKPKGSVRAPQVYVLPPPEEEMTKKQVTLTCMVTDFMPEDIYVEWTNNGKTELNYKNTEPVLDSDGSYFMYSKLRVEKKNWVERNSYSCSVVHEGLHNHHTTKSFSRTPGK
Procedure: as §1

[3] = target: T6, monomeric human PRLR (hPRLR.mmh; SEQ ID NO:401) (Homo sapiens, UniProt P16471); test: as above; format: binding; conditions: analyte hPRLR.mmh
T6 construct: soluble monomeric (hPRLR.mmh); mmh (myc-myc-hexahistidine) (C)
T6 sequence (P16471 with tags, fused parts or gaps): as the sequence (as listed by the source) above, with V105I, T139A, M154I, T187I, I236T counted along it
Procedure: as §1

HEK293 parental cells = test: FACS cell surface binding; design: species or system human
Procedure: (§2) The ability of anti-PRLR antibodies to selectively bind PRLR expressing cell lines was next determined. Human, monkey Macaca fascicularis, and mouse PRLR constructs with an HA tag were stably introduced into HEK293 cells via Lipofectamine 2000-mediated transfection methodology. Transfectants (HEK293/hPRLR, HEK293/mfPRLR and HEK293/mPRLR) were selected for at least 2 weeks in complete growth media plus G418.
(§3) Cell surface expression of PRLR on 293/hPRLR cells was assessed via FACS analysis. Briefly, 1×10^5 cells were incubated with 10 μg/ml of Control antibody I, or an isotype control for 30 min on ice in antibody dilution buffer. Following two washes with antibody dilution buffer, cells were incubated with 10 μg/ml of PE conjugated anti-human secondary antibodies for 30 min on ice. Following two additional washes, samples were run on a Hypercyt® cytometer and analyzed in ForeCyt™ (IntelliCyt, Albuquerque, N. Mex.). The mean fluorescence intensities (MFI) were expressed as fold change above isotype control levels (background). FACS binding confirmed that Control I selectively bound to 293/hPRLR expressing cells with MFIs that were 30 fold above background (isotype ctrl) levels and less than 2 fold binding on parental cells.
(§4) Next, the anti-PRLR antibodies were tested via FACS for selective binding to the engineered overexpressing PRLR HEK293 cell lines, as well as to non-expressing HEK293 cells and a native PRLR expressing cell line (T47D).

[4] = target: T1, human PRLR on HEK293/hPRLR cells; test: FACS cell surface binding
Procedure: as §2, §3, §4

[5] = target: T2, monkey PRLR on HEK293/mfPRLR cells; test: FACS cell surface binding
Procedure: as §2, §3, §4

[6] = target: T3, mouse PRLR on HEK293/mPRLR cells; test: FACS cell surface binding
Procedure: as §2, §3, §4

[7] = target: T4, native PRLR expressing T47D cells; test: FACS cell surface binding
Procedure: as §3, §4

Row | Molecule | ka ([1]; 25° C.) [M/s] | kd ([1]; 25° C.) [s⁻¹] | ka ([1]; 37° C.) [M/s] | kd ([1]; 37° C.) [s⁻¹] | ka ([2]; 25° C.) [M/s] | kd ([2]; 25° C.) [s⁻¹] | ka ([2]; 37° C.) [M/s] | kd ([2]; 37° C.) [s⁻¹] | ka ([3]; 25° C.) [M/s] | kd ([3]; 25° C.) [s⁻¹] | ka ([3]; 37° C.) [M/s] | kd ([3]; 37° C.) [s⁻¹] | FACS Cell Binding (HEK293 parental cells) [Fold Above Background] | FACS Cell Binding [4] [Fold Above Background] | FACS Cell Binding [5] [Fold Above Background] | FACS Cell Binding [6] [Fold Above Background] | FACS Cell Binding [7] [Fold Above Background]
1 | B1 | 177000 | 0.000393 | 233000 | 0.00107 | 229000 | 7.57e-05 | 410000 | 0.000142 | 235000 | 0.000332 | 339000 | 0.00102 | 2 | 2 | 32 | 2 | 43
2 | B2 | 236000 | 0.000983 | 305000 | 0.00286 | 303000 | 9.48e-05 | 499000 | 0.000176 | 324000 | 0.000794 | 435000 | 0.00229 | 1 | 37 | 28 | 3 | 37
